Reference: the RNAGym collection of RNA variant scans (doi:10.1021/acssynbio.7b00057)

B1: Pistol ribozyme (parent)
chain: GGGUCGUUGUUCCAUAAUCGCGUGGAUAUGGCACGCAAGUUUCUACCGGGCACCGUAAAUGUCCGACUGGAGCCGUUCGGGCGGCUAUAAACAGACCUCAGGCCCGAAGCGUGGCGGCACCUGCCGCCGGUGGUAAAAAAGAUCGGAAGAGCACACGUCU

Variants of: B1
Experiment: aptazyme ON/OFF ratio, guanine; higher = stronger switching; co-transcriptional cleavage with and without guanine

Question: Which “aptazyme ON/OFF ratio” value does the source give for GGGUCGCGAUACUAUAAUCGCGUGGAUAUGGCACGCAAGUUUCUACCGGGCACCGUAAAUGUCCGACUGGAGCCGUUCGGGCGGCUAUAAACAGACCUCAGGCCCGAAGCGUGGCGGCACCUGCCGCCGGUGGUAAAAAAGAUCGGAAGAGCACACGUCU [U7C U8G G9A U11A C13U] here?
Answer: The value was 1.19.

Question: For GGGUCGCGAGGCGAUAAUCGCGUGGAUAUGGCACGCAAGUUUCUACCGGGCACCGUAAAUGUCCGACUGGAGCCGUUCGGGCGGCUAUAAACAGACCUCAGGCCCGAAGCGUGGCGGCACCUGCCGCCGGUGGUAAAAAAGAUCGGAAGAGCACACGUCU [U7C U8G G9A U10G U11G C13G], which “aptazyme ON/OFF ratio” value is on record?
Answer: Its value is 1.39.

Question: With GGGUCGCGAGGCAAUAAUCGCGUGGAUAUGGCACGCAAGUUUCUACCGGGCACCGUAAAUGUCCGACUGGAGCCGUUCGGGCGGCUAUAAACAGACCUCAGGCCCGAAGCGUGGCGGCACCUGCCGCCGGUGGUAAAAAAGAUCGGAAGAGCACACGUCU [U7C U8G G9A U10G U11G C13A] as the variant, how does the “aptazyme ON/OFF ratio” value read?
Answer: The value was 1.2.

Question: With GGGUCGCGAGGCUAUAAUCGCGUGGAUAUGGCACGCAAGUUUCUACCGGGCACCGUAAAUGUCCGACUGGAGCCGUUCGGGCGGCUAUAAACAGACCUCAGGCCCGAAGCGUGGCGGCACCUGCCGCCGGUGGUAAAAAAGAUCGGAAGAGCACACGUCU [U7C U8G G9A U10G U11G C13U] as the variant, how does the “aptazyme ON/OFF ratio” value read?
Answer: The value was 1.19.

Question: Which “aptazyme ON/OFF ratio” value does the source give for GGGUCGCGAUCCCAUAAUCGCGUGGAUAUGGCACGCAAGUUUCUACCGGGCACCGUAAAUGUCCGACUGGAGCCGUUCGGGCGGCUAUAAACAGACCUCAGGCCCGAAGCGUGGCGGCACCUGCCGCCGGUGGUAAAAAAGAUCGGAAGAGCACACGUCU [U7C U8G G9A U11C] here?
Answer: The value was 1.04.

Question: For GGGUCGCGAUACCAUAAUCGCGUGGAUAUGGCACGCAAGUUUCUACCGGGCACCGUAAAUGUCCGACUGGAGCCGUUCGGGCGGCUAUAAACAGACCUCAGGCCCGAAGCGUGGCGGCACCUGCCGCCGGUGGUAAAAAAGAUCGGAAGAGCACACGUCU [U7C U8G G9A U11A], which “aptazyme ON/OFF ratio” value is on record?
Answer: The value was 1.18.

Question: Which “aptazyme ON/OFF ratio” value does the source give for GGGUCGCGAGGUUAUAAUCGCGUGGAUAUGGCACGCAAGUUUCUACCGGGCACCGUAAAUGUCCGACUGGAGCCGUUCGGGCGGCUAUAAACAGACCUCAGGCCCGAAGCGUGGCGGCACCUGCCGCCGGUGGUAAAAAAGAUCGGAAGAGCACACGUCU [U7C U8G G9A U10G U11G C12U C13U] here?
Answer: The value was 1.22.

Question: For GGGUCGCGAGGUGAUAAUCGCGUGGAUAUGGCACGCAAGUUUCUACCGGGCACCGUAAAUGUCCGACUGGAGCCGUUCGGGCGGCUAUAAACAGACCUCAGGCCCGAAGCGUGGCGGCACCUGCCGCCGGUGGUAAAAAAGAUCGGAAGAGCACACGUCU [U7C U8G G9A U10G U11G C12U C13G], which “aptazyme ON/OFF ratio” value is on record?
Answer: The value was 1.25.

Question: With GGGUCGCGAGGUAAUAAUCGCGUGGAUAUGGCACGCAAGUUUCUACCGGGCACCGUAAAUGUCCGACUGGAGCCGUUCGGGCGGCUAUAAACAGACCUCAGGCCCGAAGCGUGGCGGCACCUGCCGCCGGUGGUAAAAAAGAUCGGAAGAGCACACGUCU [U7C U8G G9A U10G U11G C12U C13A] as the variant, how does the “aptazyme ON/OFF ratio” value read?
Answer: Its value is 1.42.

Question: For GGGUCGCGAUAUUAUAAUCGCGUGGAUAUGGCACGCAAGUUUCUACCGGGCACCGUAAAUGUCCGACUGGAGCCGUUCGGGCGGCUAUAAACAGACCUCAGGCCCGAAGCGUGGCGGCACCUGCCGCCGGUGGUAAAAAAGAUCGGAAGAGCACACGUCU [U7C U8G G9A U11A C12U C13U], which “aptazyme ON/OFF ratio” value is on record?
Answer: The value was 1.15.

Question: Which “aptazyme ON/OFF ratio” value does the source give for GGGUCGCGAUAUAAUAAUCGCGUGGAUAUGGCACGCAAGUUUCUACCGGGCACCGUAAAUGUCCGACUGGAGCCGUUCGGGCGGCUAUAAACAGACCUCAGGCCCGAAGCGUGGCGGCACCUGCCGCCGGUGGUAAAAAAGAUCGGAAGAGCACACGUCU [U7C U8G G9A U11A C12U C13A] here?
Answer: Its value is 1.19.

Question: With GGGUCGCGAUAUGAUAAUCGCGUGGAUAUGGCACGCAAGUUUCUACCGGGCACCGUAAAUGUCCGACUGGAGCCGUUCGGGCGGCUAUAAACAGACCUCAGGCCCGAAGCGUGGCGGCACCUGCCGCCGGUGGUAAAAAAGAUCGGAAGAGCACACGUCU [U7C U8G G9A U11A C12U C13G] as the variant, how does the “aptazyme ON/OFF ratio” value read?
Answer: The value was 1.17.

Question: For GGGUCGCGAGGGUAUAAUCGCGUGGAUAUGGCACGCAAGUUUCUACCGGGCACCGUAAAUGUCCGACUGGAGCCGUUCGGGCGGCUAUAAACAGACCUCAGGCCCGAAGCGUGGCGGCACCUGCCGCCGGUGGUAAAAAAGAUCGGAAGAGCACACGUCU [U7C U8G G9A U10G U11G C12G C13U], which “aptazyme ON/OFF ratio” value is on record?
Answer: The value was 1.24.

Question: Which “aptazyme ON/OFF ratio” value does the source give for GGGUCGCGAGGGGAUAAUCGCGUGGAUAUGGCACGCAAGUUUCUACCGGGCACCGUAAAUGUCCGACUGGAGCCGUUCGGGCGGCUAUAAACAGACCUCAGGCCCGAAGCGUGGCGGCACCUGCCGCCGGUGGUAAAAAAGAUCGGAAGAGCACACGUCU [U7C U8G G9A U10G U11G C12G C13G] here?
Answer: The value was 1.03.

Question: With GGGUCGCGAGGGAAUAAUCGCGUGGAUAUGGCACGCAAGUUUCUACCGGGCACCGUAAAUGUCCGACUGGAGCCGUUCGGGCGGCUAUAAACAGACCUCAGGCCCGAAGCGUGGCGGCACCUGCCGCCGGUGGUAAAAAAGAUCGGAAGAGCACACGUCU [U7C U8G G9A U10G U11G C12G C13A] as the variant, how does the “aptazyme ON/OFF ratio” value read?
Answer: Its value is 1.42.

Question: With GGGUCGCGAGGGCAUAAUCGCGUGGAUAUGGCACGCAAGUUUCUACCGGGCACCGUAAAUGUCCGACUGGAGCCGUUCGGGCGGCUAUAAACAGACCUCAGGCCCGAAGCGUGGCGGCACCUGCCGCCGGUGGUAAAAAAGAUCGGAAGAGCACACGUCU [U7C U8G G9A U10G U11G C12G] as the variant, how does the “aptazyme ON/OFF ratio” value read?
Answer: Its value is 1.27.

Question: With GGGUCGCGAGGACAUAAUCGCGUGGAUAUGGCACGCAAGUUUCUACCGGGCACCGUAAAUGUCCGACUGGAGCCGUUCGGGCGGCUAUAAACAGACCUCAGGCCCGAAGCGUGGCGGCACCUGCCGCCGGUGGUAAAAAAGAUCGGAAGAGCACACGUCU [U7C U8G G9A U10G U11G C12A] as the variant, how does the “aptazyme ON/OFF ratio” value read?
Answer: The value was 1.33.

Question: Which “aptazyme ON/OFF ratio” value does the source give for GGGUCGCGAGGUCAUAAUCGCGUGGAUAUGGCACGCAAGUUUCUACCGGGCACCGUAAAUGUCCGACUGGAGCCGUUCGGGCGGCUAUAAACAGACCUCAGGCCCGAAGCGUGGCGGCACCUGCCGCCGGUGGUAAAAAAGAUCGGAAGAGCACACGUCU [U7C U8G G9A U10G U11G C12U] here?
Answer: Its value is 1.36.
